# Where a chain is given by its changes, count along the chain named.
# B1: SKAI-DS1 (antibody, V domains shown)
# VH: EVQLLESGGGLVQTGGSLRLSCAASGFTFSDYAMSWVRQAPGKGLEWVSWIYSNDGNKYYADSVKGRFTISRDNSKNTLYLQMNSLRAEDTAVYYCARFPVPSWRNTWSSYDAMDVWGQGTLVTV
# VL: QSVLTQPPSASGTPGRRVTISCTGSSSNIGSNYVSWYQQLPGTAPKLLIYSDSNRPSGVPDRFSGSKSGTSASLAISGLRSEDEADYYCGTWDASLSGYVFGGGTKLTVL
# notes: also called SKAI-DS1 human IgG antibody
# B2: SKAI-DS3 (antibody, V domains shown)
# VH: EVQLLESGGGLVQPGGSLRLSCAASGFTFSDYSMSWVRQAPGKGLEWVSAISSDSSSTYYADSVKGRFTISRDNSENTLYLQMNSLRAEDTAVYYCAKAILRCIPLGCYYADAMDVWGQGTLVTV
# VL: B1 VL with R16Q, Y33D, S35T, S51A, N54K, T91A, A94Y, G98A
# notes: also called SKAI-DS3 human IgG antibody
# B3: SKAI-DS15 (antibody, V domains shown)
# VH: EVQLLESGGGLVQPGGSLRLSCAASGFTFSDYDMSWVRQAPGKGLEWVSMIYSGSSSKYYADSVKGRFTISRDNSKNTLYLQMNSLRAEDTAVYYCARVTGTCHSGSCYYSDAMDVWGQGTLVTV
# VL: B1 VL with R16Q, T23S, Y33D, S35N, S51D, T91A, A94D
# notes: also called SKAI-DS15 human IgG antibody
# B4: SKAI-DS16 (antibody, V domains shown)
# VH: EVQLLESGGGLVQPGGSLRLSCAASGFTFSDYSMSWVRQAPGKGLEWVSWIYPDNGNTYYADSVKGRFTISRDNSKNTLYLQMNSLRAEDTAVYYCAKPKTSFDYWGQGTLVTV
# VL: B1 VL with R16Q, T23S, S35Y, S51D, D61G, A94Y, S97N
# notes: also called SKAI-DS16 human IgG antibody
# B5: SKAI-DS66 (antibody, V domains shown)
# VH: B4 VH with S33A, W50A, D54G, N55G, N57S, K98R, P99N, K100L, T101F, S102G
# VL: B1 VL with R16Q, Y33A, S35Y, S51D, T91S, A94D, G98A
# notes: also called SKAI-DS66 human IgG antibody
# B6: SKAI-DS64 (antibody, V domains shown)
# VH: EVQLLESGGGLVQPGGSLRLSCAASGFTFSDYSMSWVRQAPGKGLEWVSGIYHSDGSKYYADSVKGRFTISRDNSKNTLYLQMNSLRAEDTAVYYCARFDPVFDYWGQGTLVTV
# VL: QSVLTQPPSASGTPGQRVTISCSGSSSNIGSNAVSWYQQLPGTAPKLLIYDNNHRPSGVPDRFSGSKSGTSASLAISGLRSEDEADYYCGSWDDSLNAYVFGGGTKLTVL
# notes: also called SKAI-DS64 human IgG antibody
# B7: SKAI-DS1 scFv (scFv, V domains shown)
# VH: B1 VH
# VL: B1 VL
# B8: SKAI-DS7 scFv (scFv, V domains shown)
# VH: B6 VH with P14T, S33A, D55G, S57N, K58T, F99D, D100A, P101G, V102P, T113A
# VL: B6 VL
# Molecular target: T1, SARS-CoV-2-B.1.617.2 (Delta variant) RBD (SARS-CoV-2 B.1.617.2 (Delta variant), UniProt P0DTC2 319-541)
# T1 construct: domain: RBD; also called Delta RBD; Delta antigen
# Test: ELISA on RBD antigen, human IgG at 1 µg/mL, O.D. 450 nm
row,Binder,binding result
1,B1,binds
2,B2,no binding (tested: 1 µg/mL)
3,B3,no binding (tested: 1 µg/mL)
4,B4,no binding (tested: 1 µg/mL)
5,B5,binds
6,B6,binds

# Molecular target: T2, Omicron (B.1.1.529) RBD antigen (Genscript) (SARS-CoV2 Omicron variant (B.1.1.529), UniProt P0DTC2 319-541)
# T2 construct: domain: RBD; also called Omicron RBD; Omicron variant RBD
# Test: as above
row,Binder,binding result
1,B1,no binding (tested: 1 µg/mL)
2,B2,no binding (tested: 1 µg/mL)
3,B3,no binding (tested: 1 µg/mL)
4,B4,no binding (tested: 1 µg/mL)
5,B5,no binding (tested: 1 µg/mL)
6,B6,no binding (tested: 1 µg/mL)

# Molecular target: T1, SARS-CoV-2-B.1.617.2 (Delta variant) RBD
# Test: ELISA of scFv from individual colonies on RBD antigens
row,Binder,binding result
1,B7,binds
2,B8,binds

# — US20250002562A1 (Scripps Research, published 2025)
